Data: patent US20030232387A1 (Takeda / Millennium, published 2003)
“And” between values parts separate entries of the source, which are not always exact repeats. Identical values can stand only once. One block for each binder: values may come before it.

Legend:
[1] = biological target: T1, α4β7 integrin expressed on transfected K562 cells (human, UniProt P13612 34-1032; P26010 20-798); experiment: flow cytometry on K562 α4β7 transfectants
T1 construct: How the α4β7 transfectants were made is not described; also called α4β7 transfectants

[2] = biological target: T2, human αEβ7 integrin expressed on cells (human, UniProt P38570 19-1179; P26010 20-798); experiment: cell adhesion assay, inhibition of K562 αEβ7 cells binding to immobilised E-cadherin-IgG
T2 construct: also called K562 transfectants that express αEβ7; L1.2 αEβ7 transfectants
Method: ELISA plates were coated with 100 ng/well E-cadherin-IgG fusion protein in TBS (20 mM Tris, 140 mM NaCl, pH 9)/1 mM CaCl₂ overnight at 4° C. Plates were washed with wash buffer (HBSS/1 mM CaCl₂), and blocked with HBSS/1 mM CaCl₂/2% BSA for one hour at 37° C. After blocking, plates were washed twice with wash buffer. K562 transfectants at log growth stage were collected, washed once in HBSS/0.2% BSA/1 mM CaCl₂/1 mM MgCl₂, and resuspended to 4×10⁶ cells/mL in the same buffer. Cells were labeled with the fluorecent dye BCECF-AM (Molecular Probes, 4 μg/ml final concentration) for 15 minutes at […]. Labeled cells were washed twice, and resuspended in assay buffer (HBSS/0.2% BSA/1 mM CaCl₂/1 mM MgCl₂/1 mM MnCl₂) to 8×10⁵ cells/mL. 50 μl of the cell suspension was added to the E-cadherin-IgG coated well (4×10⁴ cells/well), and mixed with 50 μl assay buffer containing antibodies with desired concentration, or isotype-matched control antibody. The plate was then incubated at room temperature for 1 hour. The fluorescence content in each well was read on a Fluorescent Concentration Analyser (IDEXX, Westbrook, Me.) before and after three washes with HBSS/0.5 mM CaCl₂/0.5 mM MgCl₂/0.5 mM MnCl₂ using a Microplate Autowasher (Bio-Tek instruments, Winooski, Vt.). The Microplate Autowasher was programmed with parameters: 250 μl wash volume, 1× wash cycle, 0 soak time, and aspiration tube depth of 70. The bound cells (after washes) were expressed as a percentage of total input cells (before washes) in each well. Each sample was set up in triplicate wells.

[3] = biological target: mutant αEβ7 integrin, αE F298A, on transfected K562 cells (human, UniProt P38570 19-1179; P26010 20-798, F298A); experiment: flow cytometry on K562 cells expressing αEβ7 with αE F298A
Method: The fine specificity of mAb 5E4 was determined using a panel of transfected K562 cells that expressed various mutant αEβ7 integrins and detecting antibody binding to the transfectants by flow cytometry. The mutants proteins and methods used have been previously described in Higgins, J. M. G. et al., J. Biol. Chem. 275:25652-25664 (2000). The mutant αEβ7 integrins used contained the following mutations in the αE chain: R159S/R160S; ΔE163-E180; ΔE176; D190A; G193A; D199A; R202A/D205A; G230A/V231A; D240A; F298A; P311H/E345A/T346A; E325A; and Y354W. (See, Higgins, J. M. G. et al., J. Biol. Chem. 275:25652-25664 (2000).)
The fine specificity of mAb 5E4 was examined using transfected K562 cells that expressed αEβ7 integrin or mutated version of αEβ7 integrins, and antibody binding was detected by flow cytometry. Antibody binding was inhibited by deletion of amino acid residues 163-180 (ΔE163-E180; amino acid residues 163-180 of SEQ ID NO: 2), which are in the X domain of integrin αE chain, and was essentially abrogated by mutation of amino acid residue 298 (amino acid residue 298 of SEQ ID NO:2), which is in the I-domain, from Phenylalanine to Alanine (F298A).

T1 sequence (P13612 34-1032 R878Q limits assumed, chain 1 of 2): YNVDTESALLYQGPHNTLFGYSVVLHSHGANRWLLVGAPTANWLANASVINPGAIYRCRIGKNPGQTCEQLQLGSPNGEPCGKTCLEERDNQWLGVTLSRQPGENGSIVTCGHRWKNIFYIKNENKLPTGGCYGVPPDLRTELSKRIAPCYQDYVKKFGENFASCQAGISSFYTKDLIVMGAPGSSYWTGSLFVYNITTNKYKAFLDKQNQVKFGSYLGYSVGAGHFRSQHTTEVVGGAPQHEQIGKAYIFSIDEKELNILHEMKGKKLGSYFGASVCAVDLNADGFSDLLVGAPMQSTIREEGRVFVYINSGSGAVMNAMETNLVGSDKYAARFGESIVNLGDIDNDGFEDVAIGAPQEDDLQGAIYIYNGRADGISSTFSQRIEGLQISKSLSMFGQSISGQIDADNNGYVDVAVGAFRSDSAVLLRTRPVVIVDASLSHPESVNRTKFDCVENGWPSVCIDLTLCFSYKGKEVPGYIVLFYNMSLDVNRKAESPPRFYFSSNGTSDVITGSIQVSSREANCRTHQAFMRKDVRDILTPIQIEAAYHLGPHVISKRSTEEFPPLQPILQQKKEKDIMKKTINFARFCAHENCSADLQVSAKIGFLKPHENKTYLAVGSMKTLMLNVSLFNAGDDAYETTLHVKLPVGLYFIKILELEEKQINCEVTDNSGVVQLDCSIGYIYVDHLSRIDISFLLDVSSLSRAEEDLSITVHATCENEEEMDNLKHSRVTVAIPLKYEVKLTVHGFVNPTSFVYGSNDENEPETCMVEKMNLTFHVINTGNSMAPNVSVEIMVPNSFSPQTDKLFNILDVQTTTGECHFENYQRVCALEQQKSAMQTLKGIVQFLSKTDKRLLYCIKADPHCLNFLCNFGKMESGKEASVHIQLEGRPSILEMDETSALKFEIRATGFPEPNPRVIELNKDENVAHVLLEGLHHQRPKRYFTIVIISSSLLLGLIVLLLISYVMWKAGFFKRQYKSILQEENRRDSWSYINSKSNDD
T1 sequence (P26010 20-798 limits assumed, chain 2 of 2): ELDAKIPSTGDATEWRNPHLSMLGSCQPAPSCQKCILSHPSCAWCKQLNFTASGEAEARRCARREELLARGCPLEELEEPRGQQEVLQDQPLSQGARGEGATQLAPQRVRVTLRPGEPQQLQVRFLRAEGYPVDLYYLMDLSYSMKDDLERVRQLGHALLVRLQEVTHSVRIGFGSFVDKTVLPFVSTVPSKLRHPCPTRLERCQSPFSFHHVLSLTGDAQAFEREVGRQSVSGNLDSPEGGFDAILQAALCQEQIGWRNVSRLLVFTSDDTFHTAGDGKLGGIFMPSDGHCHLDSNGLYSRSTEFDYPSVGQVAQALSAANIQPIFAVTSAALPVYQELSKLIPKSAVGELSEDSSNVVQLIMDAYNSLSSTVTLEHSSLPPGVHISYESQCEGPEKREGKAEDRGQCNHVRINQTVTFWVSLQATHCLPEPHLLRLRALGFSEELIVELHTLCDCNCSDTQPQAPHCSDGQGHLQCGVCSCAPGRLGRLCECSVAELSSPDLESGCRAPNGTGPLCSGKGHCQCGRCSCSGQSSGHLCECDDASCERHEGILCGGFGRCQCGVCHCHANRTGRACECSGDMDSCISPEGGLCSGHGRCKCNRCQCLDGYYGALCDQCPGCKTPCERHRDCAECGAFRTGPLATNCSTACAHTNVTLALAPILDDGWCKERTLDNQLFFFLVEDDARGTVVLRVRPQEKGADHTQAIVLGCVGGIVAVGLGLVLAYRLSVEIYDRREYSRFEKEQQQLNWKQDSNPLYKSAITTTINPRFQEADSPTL
T2 sequence (P38570 other isoform, or with tags, fused parts or gaps limits assumed, chain 1 of 2): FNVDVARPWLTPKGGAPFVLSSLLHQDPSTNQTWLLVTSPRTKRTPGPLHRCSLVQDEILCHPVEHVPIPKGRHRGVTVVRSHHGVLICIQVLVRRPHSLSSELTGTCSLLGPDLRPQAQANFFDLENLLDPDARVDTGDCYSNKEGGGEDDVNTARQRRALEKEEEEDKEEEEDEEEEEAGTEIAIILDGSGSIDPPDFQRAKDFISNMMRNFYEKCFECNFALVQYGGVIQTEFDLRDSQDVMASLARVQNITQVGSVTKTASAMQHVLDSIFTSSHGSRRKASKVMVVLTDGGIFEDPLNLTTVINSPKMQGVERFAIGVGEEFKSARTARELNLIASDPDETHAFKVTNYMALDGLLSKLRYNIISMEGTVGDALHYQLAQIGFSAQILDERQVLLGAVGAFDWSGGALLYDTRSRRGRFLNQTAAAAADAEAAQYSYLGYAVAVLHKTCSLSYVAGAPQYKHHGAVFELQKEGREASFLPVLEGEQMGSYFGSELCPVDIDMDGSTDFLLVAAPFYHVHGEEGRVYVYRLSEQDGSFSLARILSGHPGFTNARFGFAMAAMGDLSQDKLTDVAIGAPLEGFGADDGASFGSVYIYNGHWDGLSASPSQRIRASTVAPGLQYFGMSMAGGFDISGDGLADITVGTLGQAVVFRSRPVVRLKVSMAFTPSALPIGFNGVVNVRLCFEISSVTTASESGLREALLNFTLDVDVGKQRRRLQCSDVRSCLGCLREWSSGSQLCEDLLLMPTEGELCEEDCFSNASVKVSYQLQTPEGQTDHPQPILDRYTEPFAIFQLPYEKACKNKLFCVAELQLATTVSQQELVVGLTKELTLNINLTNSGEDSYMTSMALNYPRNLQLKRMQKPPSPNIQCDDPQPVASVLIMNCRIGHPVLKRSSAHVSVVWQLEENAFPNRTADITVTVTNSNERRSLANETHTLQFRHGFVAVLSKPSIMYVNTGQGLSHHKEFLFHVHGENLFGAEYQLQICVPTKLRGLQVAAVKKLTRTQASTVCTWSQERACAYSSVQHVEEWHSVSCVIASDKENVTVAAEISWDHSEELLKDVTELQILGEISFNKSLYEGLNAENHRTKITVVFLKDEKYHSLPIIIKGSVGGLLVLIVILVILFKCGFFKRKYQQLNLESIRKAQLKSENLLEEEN
T2 sequence (P26010 20-798 limits assumed, chain 2 of 2): as the sequence (P26010 20-798 limits assumed, chain 2 of 2) above
mutant αEβ7 integrin, αE F298A, on transfected K562 cells, sequence (P38570 other isoform, or with tags, fused parts or gaps F298A | F298A F298A, chain 1 of 2): as the sequence (P38570 other isoform, or with tags, fused parts or gaps limits assumed, chain 1 of 2) above, with F298A counted along it
mutant αEβ7 integrin, αE F298A, on transfected K562 cells, sequence (P26010 20-798, chain 2 of 2): as the sequence (P26010 20-798 limits assumed, chain 2 of 2) above

- binding result [1]: no binding
- IC50 [2]: ~1.29 µg/mL and ~8.5 nM
B1: mAb 5E4 (IgG1) (antibody, V domains shown)
VH: EVQLVESGGGLVQPGGSLRLSCAASGFTFSNFWMSWVRQAPGKGLEWMANIKQDGSEKYYVDSVKGRFTISRDNAKSSLFLQMNSLRVDDTAVYFCAGDYYDSGSFYWGQGTLVTVSS
VL: EIVLTQSPATLSLSPGERATLSCRASQSVRSNLAWYQQKPGQAPRLLIYDASNRAIGIPARFSGSGSGTDFTLTISSLEPEDFVVYYCQQRSNWPPWTFGQGTKVEIK
notes: Human antibody; also called converted 5E4 (IgG1); antibody produced by CHO 5G4 A1.2C12

- binding result [3]: no binding
B2: mAb 5E4 (antibody, V domains shown)
VH: B1 VH
VL: B1 VL
notes: The variable domains are the same as in m3 and m4

- binding result [1]: no binding
- IC50 [2]: ~2.04 µg/mL and ~13.4 nM
B3: mAb 3G6 (IgG1) (antibody, V domains shown)
VH: EVQLVQSGAEVKKPGESLKISCKGSGYSFTSYWIGWVRQMPGKGLEWMGIIYPGDSGPRYSPSFQGQVTISADKSISTAYLQWSSLKASDTAMYYCARLSYTSTWYPYYFDYWGQGTLVTVSS
VL: not shown
notes: Human antibody; also called converted 3G6 (IgG1); antibody produced by CHO 3G6 C1.2D6

- IC50 [2]: ~0.715 µg/mL and ~4.7 nM
B4: mAb 8D5 (IgG1) (antibody, V domains shown)
VH: QVQLQESGPGLVKPSETLSLTCTVSGGSVSSYYWSWIRQPPGKGLEWIGHIYYSGNTNYNPSLKSRVTISVDTSKNQFSLKLSSVTAADTAVYFCARDRWNYYDSSPGYYYYYGMDVWGQGTTVTVSS
VL: DIQMTQSPSSLSASVGDRVTITCRASQGIRNDLGWYQQKPGKAPKRLIFAASHLQSGVPSRFSGSGSGTEFTLTISSLQPEDFATYYCQQHNSSPFTFGPGTRVDIK
notes: The variable domains are the same either way

- binding result [1]: no binding
B5: mAb 8D5 (antibody, V domains shown)
VH: B4 VH
VL: B4 VL
notes: also called 8D5 IgG2; human mAb 8D5 (IgG2)
